Laboratory results from PMC9482650, “Quantitative fragmentomics allow affinity mapping of interactomes” (Nature Communications, 2022).

T1: RHPN1, Q8TCX5
T1 sequence (Q8TCX5 508-602, limits assumed, looked up): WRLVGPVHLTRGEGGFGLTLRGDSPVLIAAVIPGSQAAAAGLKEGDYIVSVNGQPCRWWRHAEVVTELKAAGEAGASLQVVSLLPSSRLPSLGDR

T2: SHANK1, Q9Y566
T2 sequence (Q9Y566 658-767, limits assumed, looked up): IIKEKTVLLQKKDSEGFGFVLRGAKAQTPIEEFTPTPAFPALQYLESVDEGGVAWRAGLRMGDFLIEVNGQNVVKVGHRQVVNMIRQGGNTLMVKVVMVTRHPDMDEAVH

T3: CARD11, Q9BXL7
T3 sequence (Q9BXL7 662-765, limits assumed, looked up): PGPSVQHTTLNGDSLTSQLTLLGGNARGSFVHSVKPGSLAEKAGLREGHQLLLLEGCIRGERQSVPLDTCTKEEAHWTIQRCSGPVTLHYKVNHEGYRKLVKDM

T4: PARD3B_1, Q8TEW8
T4 sequence (Q8TEW8 196-299, limits assumed, looked up): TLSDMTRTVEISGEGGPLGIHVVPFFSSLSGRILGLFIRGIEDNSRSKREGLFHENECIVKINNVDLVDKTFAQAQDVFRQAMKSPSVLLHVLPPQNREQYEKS

T5: MPDZ_12, O75970
T5 sequence (O75970 1857-1958, limits assumed, looked up): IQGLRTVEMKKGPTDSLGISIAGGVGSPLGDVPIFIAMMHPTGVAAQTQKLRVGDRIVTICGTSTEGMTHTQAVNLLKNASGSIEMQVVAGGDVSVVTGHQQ

T6: GRIP1_4, Q9Y3R0
T6 sequence (Q9Y3R0 467-571, limits assumed, looked up): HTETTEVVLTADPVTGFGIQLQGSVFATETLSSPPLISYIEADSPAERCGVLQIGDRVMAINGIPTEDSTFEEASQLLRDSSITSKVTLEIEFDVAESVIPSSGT

T7: SIPA1L2, Q9P2F8
T7 sequence (Q9P2F8 945-1036, limits assumed, looked up): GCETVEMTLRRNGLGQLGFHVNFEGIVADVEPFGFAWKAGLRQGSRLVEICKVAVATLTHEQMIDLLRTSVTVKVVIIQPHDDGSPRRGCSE

T8: LIN7C, Q9NUP9
T8 sequence (Q9NUP9 88-185, limits assumed, looked up): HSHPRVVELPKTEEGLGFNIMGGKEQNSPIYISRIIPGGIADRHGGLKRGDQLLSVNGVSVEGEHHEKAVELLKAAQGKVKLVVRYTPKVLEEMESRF


Target: GORASP1, Q9BQQ3
Sequence (Q9BQQ3 1-208): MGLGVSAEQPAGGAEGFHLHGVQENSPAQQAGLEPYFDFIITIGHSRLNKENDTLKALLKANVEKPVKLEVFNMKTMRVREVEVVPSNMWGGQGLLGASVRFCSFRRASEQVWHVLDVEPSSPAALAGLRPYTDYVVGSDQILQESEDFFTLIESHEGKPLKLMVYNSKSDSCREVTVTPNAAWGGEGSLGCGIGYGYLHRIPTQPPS
Assay: holdup assay
Design: key: below the threshold = too weak to quantify, mostly under pKd 3.1 to 4
Conditions: plain residues with an end cap or a label only (N-terminal biotin on a linker: ado-ado)

Row | pKd | Binder
1 | below the threshold | AKADAQESRL [PLCB2, Q00722]
2 | below the threshold | IQISELETNV [SLC1A7, O00341]

Target: MAGI2_6, Q86UL8
Sequence (Q86UL8 1141-1229): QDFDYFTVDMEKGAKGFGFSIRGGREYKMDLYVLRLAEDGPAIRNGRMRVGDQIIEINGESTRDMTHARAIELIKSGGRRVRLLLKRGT
Assay: holdup assay
Design: key: below the threshold = too weak to quantify, mostly under pKd 3.1 to 4
Conditions: plain residues with an end cap or a label only (N-terminal biotin on a linker: ado-ado)

Row | pKd | Binder
3 | below the threshold | AKADAQESRL [PLCB2, Q00722]
4 | 4.31 | IQISELETNV [SLC1A7, O00341]

Target: NHERF2_2, Q15599
Sequence (Q15599 142-238): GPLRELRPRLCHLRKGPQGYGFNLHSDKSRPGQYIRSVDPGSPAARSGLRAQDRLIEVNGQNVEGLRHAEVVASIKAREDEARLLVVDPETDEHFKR
Assay: holdup assay
Design: key: below the threshold = too weak to quantify, mostly under pKd 3.1 to 4
Conditions: plain residues with an end cap or a label only (N-terminal biotin on a linker: ado-ado)

Row | pKd | Binder
5 | 5.19 | AKADAQESRL [PLCB2, Q00722]
6 | 3.56 | IQISELETNV [SLC1A7, O00341]

Target: LDB3, O75112
Sequence (O75112 1-94): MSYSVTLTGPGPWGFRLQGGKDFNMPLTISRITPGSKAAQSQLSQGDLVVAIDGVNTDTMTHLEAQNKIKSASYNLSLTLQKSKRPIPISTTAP
Assay: holdup assay
Design: key: below the threshold = too weak to quantify, mostly under pKd 3.1 to 4
Conditions: plain residues with an end cap or a label only (N-terminal biotin on a linker: ado-ado)

Row | pKd | Binder
7 | below the threshold | AKADAQESRL [PLCB2, Q00722]
8 | below the threshold | IQISELETNV [SLC1A7, O00341]

Target: T1, RHPN1, Q8TCX5
Assay: holdup assay
Design: key: below the threshold = too weak to quantify, mostly under pKd 3.1 to 4
Conditions: plain residues with an end cap or a label only (N-terminal biotin on a linker: ado-ado)

Row | pKd | Binder
9 | 4.53 | AKADAQESRL [PLCB2, Q00722]
10 | 4.88 | IQISELETNV [SLC1A7, O00341]

Target: Inadl_1, Q8NI35
Sequence (Q8NI35 113-229): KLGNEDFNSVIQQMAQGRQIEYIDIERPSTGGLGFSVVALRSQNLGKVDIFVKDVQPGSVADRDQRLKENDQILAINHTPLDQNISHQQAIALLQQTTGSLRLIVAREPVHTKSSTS
Assay: holdup assay
Design: key: below the threshold = too weak to quantify, mostly under pKd 3.1 to 4
Conditions: plain residues with an end cap or a label only (N-terminal biotin on a linker: ado-ado)

Row | pKd | Binder
11 | below the threshold | AKADAQESRL [PLCB2, Q00722]
12 | below the threshold | IQISELETNV [SLC1A7, O00341]

Target: GRID2IP_2, A4D2P6
Sequence (A4D2P6 272-370): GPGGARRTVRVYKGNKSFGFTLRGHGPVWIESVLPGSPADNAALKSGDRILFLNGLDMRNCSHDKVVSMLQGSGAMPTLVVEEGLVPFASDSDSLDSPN
Assay: holdup assay
Design: key: below the threshold = too weak to quantify, mostly under pKd 3.1 to 4
Conditions: plain residues with an end cap or a label only (N-terminal biotin on a linker: ado-ado)

Row | pKd | Binder
13 | 3.86 | AKADAQESRL [PLCB2, Q00722]
14 | 3.49 | IQISELETNV [SLC1A7, O00341]

Target: T2, SHANK1, Q9Y566
Assay: holdup assay
Design: key: below the threshold = too weak to quantify, mostly under pKd 3.1 to 4
Conditions: plain residues with an end cap or a label only (N-terminal biotin on a linker: ado-ado)

Row | pKd | Binder
15 | 4.33 | AKADAQESRL [PLCB2, Q00722]
16 | 3.94 | IQISELETNV [SLC1A7, O00341]

Target: FRMPD2_2, Q68DX3
Sequence (Q68DX3 944-1038): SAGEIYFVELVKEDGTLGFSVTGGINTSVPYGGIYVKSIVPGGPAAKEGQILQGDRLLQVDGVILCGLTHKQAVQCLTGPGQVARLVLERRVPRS
Assay: holdup assay
Design: key: below the threshold = too weak to quantify, mostly under pKd 3.1 to 4
Conditions: plain residues with an end cap or a label only (N-terminal biotin on a linker: ado-ado)

Row | pKd | Binder
17 | below the threshold | AKADAQESRL [PLCB2, Q00722]
18 | 5.03 | IQISELETNV [SLC1A7, O00341]

Target: T3, CARD11, Q9BXL7
Assay: holdup assay
Design: key: below the threshold = too weak to quantify, mostly under pKd 3.1 to 4
Conditions: plain residues with an end cap or a label only (N-terminal biotin on a linker: ado-ado)

Row | pKd | Binder
19 | below the threshold | AKADAQESRL [PLCB2, Q00722]
20 | below the threshold | IQISELETNV [SLC1A7, O00341]

Target: HTRA2, O43464
Sequence (O43464 355-458): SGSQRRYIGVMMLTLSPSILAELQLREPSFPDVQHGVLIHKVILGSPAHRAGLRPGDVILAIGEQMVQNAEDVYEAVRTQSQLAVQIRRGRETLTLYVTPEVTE
Assay: holdup assay
Design: key: below the threshold = too weak to quantify, mostly under pKd 3.1 to 4
Conditions: plain residues with an end cap or a label only (N-terminal biotin on a linker: ado-ado)

Row | pKd | Binder
21 | below the threshold | AKADAQESRL [PLCB2, Q00722]
22 | below the threshold | IQISELETNV [SLC1A7, O00341]

Target: SCRIB_3, Q14160
Sequence (Q14160 999-1103): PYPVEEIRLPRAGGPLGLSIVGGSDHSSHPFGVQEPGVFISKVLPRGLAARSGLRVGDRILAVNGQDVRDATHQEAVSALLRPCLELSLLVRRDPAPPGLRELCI
Assay: holdup assay
Design: key: below the threshold = too weak to quantify, mostly under pKd 3.1 to 4
Conditions: plain residues with an end cap or a label only (N-terminal biotin on a linker: ado-ado)

Row | pKd | Binder
23 | 4.44 | AKADAQESRL [PLCB2, Q00722]
24 | 4.74 | IQISELETNV [SLC1A7, O00341]

Target: T4, PARD3B_1, Q8TEW8
Assay: holdup assay
Design: key: below the threshold = too weak to quantify, mostly under pKd 3.1 to 4
Conditions: plain residues with an end cap or a label only (N-terminal biotin on a linker: ado-ado)

Row | pKd | Binder
25 | 4.47 | AKADAQESRL [PLCB2, Q00722]
26 | below the threshold | IQISELETNV [SLC1A7, O00341]

Target: GRIP2_4, Q9C0E4
Sequence (Q9C0E4 446-548): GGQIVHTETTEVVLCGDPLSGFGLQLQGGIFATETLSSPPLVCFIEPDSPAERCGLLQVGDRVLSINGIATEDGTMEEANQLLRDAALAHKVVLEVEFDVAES
Assay: holdup assay
Design: key: below the threshold = too weak to quantify, mostly under pKd 3.1 to 4
Conditions: plain residues with an end cap or a label only (N-terminal biotin on a linker: ado-ado)

Row | pKd | Binder
27 | below the threshold | AKADAQESRL [PLCB2, Q00722]
28 | below the threshold | IQISELETNV [SLC1A7, O00341]

Target: NHERF4_4, Q86UT5
Sequence (Q86UT5 464-550): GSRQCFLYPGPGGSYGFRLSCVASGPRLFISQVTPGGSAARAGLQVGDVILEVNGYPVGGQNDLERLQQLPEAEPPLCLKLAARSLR
Assay: holdup assay
Design: key: below the threshold = too weak to quantify, mostly under pKd 3.1 to 4
Conditions: plain residues with an end cap or a label only (N-terminal biotin on a linker: ado-ado)

Row | pKd | Binder
29 | below the threshold | AKADAQESRL [PLCB2, Q00722]
30 | 3.85 | IQISELETNV [SLC1A7, O00341]

Target: SNX27, Q96L92
Assay: holdup assay
Design: key: below the threshold = too weak to quantify, mostly under pKd 3.1 to 4
Conditions: plain residues with an end cap or a label only (N-terminal biotin on a linker: ado-ado)

Row | pKd | Binder
31 | 5.21 | AKADAQESRL [PLCB2, Q00722]
32 | 5.65 | IQISELETNV [SLC1A7, O00341]

Target: Inadl_2, Q8NI35
Sequence (Q8NI35 238-335): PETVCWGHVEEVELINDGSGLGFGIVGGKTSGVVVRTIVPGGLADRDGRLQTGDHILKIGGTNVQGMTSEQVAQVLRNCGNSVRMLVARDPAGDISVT
Assay: holdup assay
Design: key: below the threshold = too weak to quantify, mostly under pKd 3.1 to 4
Conditions: plain residues with an end cap or a label only (N-terminal biotin on a linker: ado-ado)

Row | pKd | Binder
33 | below the threshold | AKADAQESRL [PLCB2, Q00722]
34 | below the threshold | IQISELETNV [SLC1A7, O00341]

Target: T5, MPDZ_12, O75970
Assay: holdup assay
Design: key: below the threshold = too weak to quantify, mostly under pKd 3.1 to 4
Conditions: plain residues with an end cap or a label only (N-terminal biotin on a linker: ado-ado)

Row | pKd | Binder
35 | below the threshold | AKADAQESRL [PLCB2, Q00722]
36 | below the threshold | IQISELETNV [SLC1A7, O00341]

Target: T6, GRIP1_4, Q9Y3R0
Assay: holdup assay
Design: key: below the threshold = too weak to quantify, mostly under pKd 3.1 to 4
Conditions: plain residues with an end cap or a label only (N-terminal biotin on a linker: ado-ado)

Row | pKd | Binder
37 | below the threshold | AKADAQESRL [PLCB2, Q00722]
38 | below the threshold | IQISELETNV [SLC1A7, O00341]

Target: T7, SIPA1L2, Q9P2F8
Assay: holdup assay
Design: key: below the threshold = too weak to quantify, mostly under pKd 3.1 to 4
Conditions: plain residues with an end cap or a label only (N-terminal biotin on a linker: ado-ado)

Row | pKd | Binder
39 | below the threshold | AKADAQESRL [PLCB2, Q00722]
40 | below the threshold | IQISELETNV [SLC1A7, O00341]

Target: Inadl_6, Q8NI35
Sequence (Q8NI35 1058-1167): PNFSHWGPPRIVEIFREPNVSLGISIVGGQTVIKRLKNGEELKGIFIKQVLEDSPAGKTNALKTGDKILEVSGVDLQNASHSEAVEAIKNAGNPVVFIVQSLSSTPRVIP
Assay: holdup assay
Design: key: below the threshold = too weak to quantify, mostly under pKd 3.1 to 4
Conditions: plain residues with an end cap or a label only (N-terminal biotin on a linker: ado-ado)

Row | pKd | Binder
41 | 3.48 | AKADAQESRL [PLCB2, Q00722]
42 | 4.04 | IQISELETNV [SLC1A7, O00341]

Target: T8, LIN7C, Q9NUP9
Assay: holdup assay
Design: key: below the threshold = too weak to quantify, mostly under pKd 3.1 to 4
Conditions: plain residues with an end cap or a label only (N-terminal biotin on a linker: ado-ado)

Row | pKd | Binder
43 | 4.28 | AKADAQESRL [PLCB2, Q00722]
44 | 3.97 | IQISELETNV [SLC1A7, O00341]

Target: MAGI2_2, Q86UL8
Sequence (Q86UL8 410-522): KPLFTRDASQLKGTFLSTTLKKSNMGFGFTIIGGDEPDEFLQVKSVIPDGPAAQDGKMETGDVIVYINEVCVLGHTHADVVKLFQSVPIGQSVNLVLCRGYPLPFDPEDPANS
Assay: holdup assay
Design: key: below the threshold = too weak to quantify, mostly under pKd 3.1 to 4
Conditions: plain residues with an end cap or a label only (N-terminal biotin on a linker: ado-ado)

Row | pKd | Binder
45 | below the threshold | AKADAQESRL [PLCB2, Q00722]
46 | below the threshold | IQISELETNV [SLC1A7, O00341]

Target: DLG4_1, P78352
Sequence (P78352 62-152): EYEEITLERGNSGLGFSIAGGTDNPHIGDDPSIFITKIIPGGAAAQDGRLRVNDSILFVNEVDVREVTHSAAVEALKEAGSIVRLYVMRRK
Assay: holdup assay
Design: key: below the threshold = too weak to quantify, mostly under pKd 3.1 to 4
Conditions: plain residues with an end cap or a label only (N-terminal biotin on a linker: ado-ado)

Row | pKd | Binder
47 | below the threshold | AKADAQESRL [PLCB2, Q00722]
48 | 4.44 | IQISELETNV [SLC1A7, O00341]

Target: LNX1_3, Q8TBB1
Sequence (Q8TBB1 500-596): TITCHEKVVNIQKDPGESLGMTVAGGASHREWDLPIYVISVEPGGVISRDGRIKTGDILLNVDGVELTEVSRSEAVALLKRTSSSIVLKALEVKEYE
Assay: holdup assay
Design: key: below the threshold = too weak to quantify, mostly under pKd 3.1 to 4
Conditions: plain residues with an end cap or a label only (N-terminal biotin on a linker: ado-ado)

Row | pKd | Binder
49 | below the threshold | AKADAQESRL [PLCB2, Q00722]
50 | below the threshold | IQISELETNV [SLC1A7, O00341]

Target: FRMPD4, Q14CM0
Sequence (Q14CM0 67-160): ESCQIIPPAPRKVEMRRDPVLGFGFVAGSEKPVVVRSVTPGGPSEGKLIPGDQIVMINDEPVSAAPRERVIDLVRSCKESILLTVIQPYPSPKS
Assay: holdup assay
Design: key: below the threshold = too weak to quantify, mostly under pKd 3.1 to 4
Conditions: plain residues with an end cap or a label only (N-terminal biotin on a linker: ado-ado)

Row | pKd | Binder
51 | 4.05 | AKADAQESRL [PLCB2, Q00722]
52 | 3.56 | IQISELETNV [SLC1A7, O00341]

Target: PTPN3, P26045
Sequence (P26045 505-587): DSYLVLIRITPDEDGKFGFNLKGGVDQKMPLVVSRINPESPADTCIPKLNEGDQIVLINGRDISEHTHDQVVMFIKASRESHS
Assay: holdup assay
Design: key: below the threshold = too weak to quantify, mostly under pKd 3.1 to 4
Conditions: plain residues with an end cap or a label only (N-terminal biotin on a linker: ado-ado)

Row | pKd | Binder
53 | 4.74 | AKADAQESRL [PLCB2, Q00722]
54 | 4.84 | IQISELETNV [SLC1A7, O00341]

Target: DLG1_3, Q12959
Sequence (Q12959 457-571): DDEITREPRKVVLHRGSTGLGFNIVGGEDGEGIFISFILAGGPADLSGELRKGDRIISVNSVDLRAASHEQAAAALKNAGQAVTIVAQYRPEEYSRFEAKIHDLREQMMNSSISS
Assay: holdup assay
Design: key: below the threshold = too weak to quantify, mostly under pKd 3.1 to 4
Conditions: plain residues with an end cap or a label only (N-terminal biotin on a linker: ado-ado)

Row | pKd | Binder
55 | below the threshold | AKADAQESRL [PLCB2, Q00722]
56 | 3.57 | IQISELETNV [SLC1A7, O00341]

Target: NHERF4_1, Q86UT5-2
Sequence (Q86UT5 other isoform, or with tags, fused parts or gaps): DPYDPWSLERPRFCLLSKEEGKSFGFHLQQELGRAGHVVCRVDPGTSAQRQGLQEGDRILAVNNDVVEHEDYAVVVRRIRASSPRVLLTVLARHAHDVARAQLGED
Assay: holdup assay
Design: key: below the threshold = too weak to quantify, mostly under pKd 3.1 to 4
Conditions: plain residues with an end cap or a label only (N-terminal biotin on a linker: ado-ado)

Row | pKd | Binder
57 | 3.84 | AKADAQESRL [PLCB2, Q00722]
58 | below the threshold | IQISELETNV [SLC1A7, O00341]
